# Tests used:
# [1] = target: Glu59; experiment: NMR; conditions: 300 K, not stated (50 mM phosphate buffers), 50 mM phosphate buffers at different pH, micelle-bound
# [2] = target: Glu49; experiment: NMR; conditions: 300 K, not stated (50 mM phosphate buffers), 50 mM phosphate buffers at different pH, micelle-bound
# [3] = L2 peptide free (no L1 or M peptide)
# [4] = L2 peptide in the presence of the GldL TMH1 (L1) and GldM TMH (M) peptides at 1:1:1 molar ratio
protein,measurement,setting,value
KKVMLSIGLLTEALIFALSAFEPVKK,pKa,[1]; [3],5.65 ± 0.13
same,pKa,[1]; [4],5.83 ± 0.02
same,pKa,[2]; [3],5.54 ± 0.04
same,pKa,[2]; [4],5.83 ± 0.02
